From PMC6386500 (PLoS ONE, 2019) come the findings set out here.

Data set [1] addresses Citrate synthase from Metallosphaera sedula (Metallosphaera sedula). Kind of data set: SEC; HiPrep 26/60 Sephacryl S-300 HR column, buffer A (40 mM Tris-HCl, pH 8.0), 277 K; eluted at approximately 85 kDa.
Data set [2] addresses T1, MsCS (citrate synthase from Metallosphaera sedula) (Metallosphaera sedula, UniProt A4YGX6).
T1 construct: gene Msed_1522; C-terminal 6xHis tag (pET-30a, NdeI/XhoI), E. coli BL21(DE3)-T1R; homodimer about 85 kDa; modelled domains Met1-Arg370; His214, His253, Asp307 catalytic
The experiment in a line: DTNB absorbance at […] nm, inhibition kinetics. The format is biochemical.

Substrate in data set [3]: O=C(O)CC(=O)C(=O)O
The experiment in a line: purified protein. The format is biochemical, Metallosphaera sedula. The following applies: 0.5 mM acetyl-CoA, 100 mM potassium phosphate pH 8.0, 150 mM NaCl, 50 uM DTNB, 298 K, no inhibitor, 25.0 °C.

Substrate in data set [4]: CC(=O)SCCNC(=O)CCNC(=O)[C@H](O)C(C)(C)COP(=O)(O)OP(=O)(O)OC[C@H]1O[C@@H](n2cnc3c(N)ncnc32)[C@H](O)[C@@H]1OP(=O)(O)O
Kind of data set: purified protein. The data set is classed as biochemical, Metallosphaera sedula. The note with it: 100 mM potassium phosphate pH 8.0, 150 mM NaCl, 50 uM DTNB, 298 K, oxaloacetate concentration not stated, no inhibitor, 25.0 °C.

By stoichiometry N is commonly meant a count of units in the complex or per binding partner. “Citrate synthase from Metallosphaera sedula (enzyme)” came in with a stoichiometry N in data set [1] of 2.
One may read the Ki as the equilibrium dissociation constant of an inhibitor or competing ligand from its target. A high value points to weaker binding. `Nc1ncnc2c1ncn2[C@@H]1O[C@H](COP(=O)(O)OP(=O)(O)OP(=O)(O)O)[C@@H](O)[C@H]1O` [ATP] came in with a Ki in data set [2] of 4.34 mM.
With `NC(=O)C1=CN([C@@H]2O[C@H](COP(=O)(O)OP(=O)(O)OC[C@H]3O[C@@H](n4cnc5c(N)ncnc54)[C@H](O)[C@@H]3O)[C@@H](O)[C@H]2O)C=CC1` [NADH], the Ki in data set [2] was found to be 4.41 mM.

B1: MsCS (citrate synthase from Metallosphaera sedula) (Metallosphaera sedula DSM 5348) (protein)
chain: MELRKGLEDIAIKETSITYIDGELGRLYYRGYSIFDLASFSNFEEVAYLLWYGKLPTRHELDDFKSRLAEERSISEDISTFVKRTAKFGNPMDILRTTVSMMGLEDRSEGDLIGKAIKMTAKIPTIISLIQRTRRNQEFVEPDPSLSHSENFLYMIRGERPSPSDTRVLDVSLMLHMDHEMNASTMACLVVASTLSDIYSSVVAGISALKGPLHGGANSEALKQFMEIETPDNVEKYVMNKLSSGQRLMGFGHRIYKTMDPRAKILKEYANQLSKNEEIKRLFEIANRVEEIGIKILGKRGIYPNVDFYSGLVFYAMGFDPDLFPTIFASARVIGWTAHVDEYLKDNKLIRPKAIYVGDLGKRYVPIEER
notes: C-terminal 6xHis tag (pET-30a, NdeI/XhoI), E. coli BL21(DE3)-T1R; homodimer about 85 kDa; modelled domains Met1-Arg370; His214, His253, Asp307 catalytic
Broadly, the Km is the concentration of substrate that gives half-maximal velocity. The kcat is the number of substrate molecules converted per active site and unit of time at saturation. What is called kcat/Km is the second-order rate constant that governs catalysis at low substrate concentration. For B1, in the data set “purified protein [3]”, the Km was found to be 0.0414 mM and the kcat is 7.62 s⁻¹. In “purified protein [4]”, the Km worked out at 0.0165 mM, the kcat was 8.56 s⁻¹ and the kcat/Km was found to be 519000 M⁻¹ s⁻¹.
